In the data set the test system is T1, Pf80 large serine recombinase.
T1 sequence: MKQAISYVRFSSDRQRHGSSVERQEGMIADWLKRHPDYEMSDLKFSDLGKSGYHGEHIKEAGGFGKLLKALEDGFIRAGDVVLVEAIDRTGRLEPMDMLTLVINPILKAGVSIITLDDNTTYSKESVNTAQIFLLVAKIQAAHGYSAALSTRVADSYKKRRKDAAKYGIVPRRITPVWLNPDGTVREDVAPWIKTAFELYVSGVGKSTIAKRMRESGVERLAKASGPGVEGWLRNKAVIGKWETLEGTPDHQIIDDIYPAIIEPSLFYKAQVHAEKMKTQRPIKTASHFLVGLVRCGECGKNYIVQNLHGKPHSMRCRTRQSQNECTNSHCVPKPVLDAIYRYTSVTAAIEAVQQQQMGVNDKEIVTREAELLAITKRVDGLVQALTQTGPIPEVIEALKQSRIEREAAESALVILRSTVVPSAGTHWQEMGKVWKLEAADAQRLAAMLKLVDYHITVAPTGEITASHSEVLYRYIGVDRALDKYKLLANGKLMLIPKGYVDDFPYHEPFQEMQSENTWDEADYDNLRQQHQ
The data set is described as follows: cell_activity. Particulars: share of unique integration reads at predicted site.

As for Pf80 attH (FKBP2 exon), the on-target integration read share was 34.3%.

Source of the values: patent US20240417754.
